# Assay results published in publication PMC3234919 (The Journal of Biological Chemistry, 2011).
# Tests used:
# crystal structure [1] = target: the molecule itself; assay: crystal structure
# crystal structure [2] = target: the molecule itself; assay: crystal structure; remark: listed apart in the source
# SEC = target: the molecule itself; assay: SEC
Protein,stoichiometry N (crystal structure [1]),stoichiometry N (SEC),further results
"human peroxiredoxin IV C51A mutant (residues 37-271 of the preprotein) (enzyme, UniProt Q13162 37-271, looked up) GWETEERPRTREEEAHFYAGGQVYPGEASRVSVADHSLHLSKAKISKPAPYWEGTAVIDGEFKELKLTDYRGKYLVFFFYPLDFTFVCPTEIIAFGDRLEEFRSINTEVVACSVDSQFTHLAWINTPRRQGGLGPIRIPLLSDLTHQISKDYGVYLEDSGHTLRGLFIIDDKGILRQITLNDLPVGRSVDETLRLVQAFQYTDKHGEVCPAGWKPGSETIIPDPAGKLKYFDKLN",10,–,–
"human peroxiredoxin IV C245A resolving cysteine mutant, sulfenylated at the peroxidatic cysteine (enzyme, UniProt Q13162 37-271, looked up, cysteine sulfenic acid at Cys-124 (peroxidatic cysteine)) GWETEERPRTREEECHFYAGGQVYPGEASRVSVADHSLHLSKAKISKPAPYWEGTAVIDGEFKELKLTDYRGKYLVFFFYPLDFTFVCPTEIIAFGDRLEEFRSINTEVVACSVDSQFTHLAWINTPRRQGGLGPIRIPLLSDLTHQISKDYGVYLEDSGHTLRGLFIIDDKGILRQITLNDLPVGRSVDETLRLVQAFQYTDKHGEVAPAGWKPGSETIIPDPAGKLKYFDKLN",–,–,stoichiometry N (crystal structure [2]): 10
"human peroxiredoxin IV C245A resolving cysteine mutant, reduced (enzyme, UniProt Q13162 37-271, looked up) GWETEERPRTREEECHFYAGGQVYPGEASRVSVADHSLHLSKAKISKPAPYWEGTAVIDGEFKELKLTDYRGKYLVFFFYPLDFTFVCPTEIIAFGDRLEEFRSINTEVVACSVDSQFTHLAWINTPRRQGGLGPIRIPLLSDLTHQISKDYGVYLEDSGHTLRGLFIIDDKGILRQITLNDLPVGRSVDETLRLVQAFQYTDKHGEVAPAGWKPGSETIIPDPAGKLKYFDKLN",10,–,–
"human peroxiredoxin IV, wild type, full-length mature protein (residues 37-271 of the preprotein) (enzyme, UniProt Q13162 37-271, looked up) GWETEERPRTREEECHFYAGGQVYPGEASRVSVADHSLHLSKAKISKPAPYWEGTAVIDGEFKELKLTDYRGKYLVFFFYPLDFTFVCPTEIIAFGDRLEEFRSINTEVVACSVDSQFTHLAWINTPRRQGGLGPIRIPLLSDLTHQISKDYGVYLEDSGHTLRGLFIIDDKGILRQITLNDLPVGRSVDETLRLVQAFQYTDKHGEVCPAGWKPGSETIIPDPAGKLKYFDKLN",–,10,–
"PrxIII (enzyme, UniProt P30048 62-256, looked up) APAVTQHAPYFKGTAVVNGEFKDLSLDDFKGKYLVLFFYPLDFTFVCPTEIVAFSDKANEFHDVNCEVVAVSVDSHFSHLAWINTPRKNGGLGHMNIALLSDLTKQISRDYGVLLEGSGLALRGLFIIDPNGVIKHLSVNDLPVGRSVEETLRLVKAFQYVETHGEVCPANWTPDSPTIKPSPAASKEYFQKVNQ",–,2,–
